Data reported in PMC9749489.

Assays:
[1] = system: Putidaredoxin D38A mutant; test: continuous-wave EPR; settings: other: continuous-wave EPR (high-spin to low-spin conversion of the heme)
[2] = system: Putidaredoxin W106A mutant; test: continuous-wave EPR; settings: other: continuous-wave EPR (high-spin to low-spin conversion of the heme)

## MTSL-P450cam (P450cam labelled with MTSL at S48C and S190C)
[1]
  conversion from the high-spin to low-spin state: approximately 50% conversion
[2]
  conversion from the high-spin to low-spin state: approximately 50% conversion
